# Data from patent US20130109846A1 (published 2013).
# Changes are numbered by the printed parent chain. In names and notes the source's numbering stands.
# B1: 1h-239-891 (other)
# VL: DIQMTQSPSSLSASVGDRVTITCRASRPIWPFLEWYQQKPGKAPKLLIYFTSRLRHGVPSRFSGSGSGTDFTLTISSLQPEDFATYYCLQNVANPATFSQGTKVEIKR
# B2: 1h-239-891(D70C) 30K linear PEG (other)
# VL: B1 VL with D70C
# modifications: 30 kDa linear PEG; engineered cysteine D70C
# B3: DOM21-28 (other)
# VL: DIQMTQSPSSLSASVGDRVTITCRASQSISHSLVWYQQKPGKAPKLLIYWASLLQSGVPSRFSGSGSGTDFTLTISSLQPEDFATYYCQQGMTTPFTFGQGTKVEIKR
# notes: VK dAb
# B4: DOM21-22 (other)
# VH: EVQLLESGGGLVQPGGSLRLSCAASGFTFELYQMGWVRQAPGKGLEWVSTIMPSGNLTYYADSVKGRFTISRDNSKNTLYLQMNSLRAEDTAVYYCAKMWSLNLGFHAAFDYWGQGTLVTVSS
# notes: VH dAb
# B5: DOM21-6 (other)
# VH: EVQLLESGGGLVQPGGSLRLSCAASGFTFENYGMAWVRQAPGKGLEWVSNIGRAGSVTYYADSVKGRFTISRDNSKNTLYLQMNSLRAEDTAVYYCAKVQSWRTFDYWGQGTLVTVSS
# notes: VH dAb
# B6: DOM21-18 (other)
# VL: DIQMTQSPSSLSASVGDRVTITCRASQYIGTSLNWYQQKPGKAPKLLTYQASLLQSGVPSRFSGSGSGTDFTLTISSLQPEDFATYYCQQLALRPMTFGQGTKVEIKR
# notes: VK dAb
# B7: DOM21-4 (other)
# VH: EVQLLESGGGLVQPGGSLRLSCAASGFTFSRYHMAWVRQAPGKGLEWVSVIDSLGLQTYYADSVKGRFTISRDNSKNTLYLQMNSLRAEDTAVYYCAEYGGAFDYWGQGTLVTVSS
# notes: VH dAb
# B8: DOM21-27 (other)
# VL: DIQMTQSPSSLSASVGDRVTITCRASQSIGTGLRWYQQKPGKAPMLLIYRASILQSGVPSRFSGSGSGTDFTLTISSLQPEDFATYYCQQTTLQPFTFSQGTKVEIKR
# notes: VK dAb
# B9: DOM21-20 (other)
# VH: EVQLLESGGGLVQPGGSLRLSCAASGFTFPAYSMIWVRQAPGKGLEWVSTISPLGYSTYYADSVKGRFTISRDNSKNTLYLQMNSLRAEDTAVYYCAEQTAYLNRATEHFDYWGQGTLVTVSS
# notes: VH dAb
# B10: DOM21-44 (other)
# VH: EVQLLESGGGLVQPGGSLRLSCAASGFTFARYTMVWVRQAPGKGLEWVSAIHFDGRTTYYADSVKGRFTISRDNSKNTLYLQMNSLRAEDTAVYYCAKNEWASLKHFDYWGQGTLVTVSS
# notes: VH dAb
# B11: DOM21-38 (other)
# VH: EVQLLESGGGLVQPGGSLRLSCAASGFTFILYDMQWVRQAPGKGLEWVSRISANGHDTYYADSVKGRFTISRDNSKNTLYLQMNSLRAEDTAVYYCAKGPHYLFDYWGQGTLVTVSS
# notes: VH dAb
# B12: 1h-99-265 (other)
# VH: EVQLLESGGGLVQPGGSLRLSCAASGFTFDKSNMSWARQAPGKGLEWVSWIEASGVQTFYADSVKGRFTISRDNSKNTLYLQMNSLRAEDTAVYYCAKSPFGPLYGFDYRGQGTLVTVSS
# B13: 1h-239-896 (other)
# VL: B1 VL with R55A, H56R, A93Q, N94M
# B14: 1h-239-890 (other)
# VL: B1 VL with R55A, H56R
# B15: 1h-99-237 (other)
# VH: B12 VH with K31S, S32A, S54P, K65R, K98R
# B16: 1h-99-237 40K linear PEG (other)
# VH: B12 VH with K31S, S32A, S54P, K65R, K98R
# modifications: 40K linear PEG; site of attachment not stated
# B17: 1h-99-2 40K linear PEG (other)
# VH: B12 VH with K31S, S32A, A37V, A53D, S54T, V56T
# modifications: 40K linear PEG; site of attachment not stated
# B18: 1h-99-2 (other)
# VH: B12 VH with K31S, S32A, A37V, A53D, S54T, V56T
# B19: 1h-99-2 40K branched PEG (other)
# VH: B12 VH with K31S, S32A, A37V, A53D, S54T, V56T
# modifications: 40K branched PEG; site of attachment not stated
# B20: 1h-99-238 (other)
# VH: B12 VH with K31S, S32A
# B21: 1h-99-238 40K linear PEG (other)
# VH: B12 VH with K31S, S32A
# modifications: 40K linear PEG; site of attachment not stated
# B22: 1h-239-8 (other)
# VL: B1 VL with R27Q, P28S, W30Y, R55Q, H56S, A93T
# B23: 1h-239-891(G41C) 40K branched PEG (other)
# VL: B1 VL with G41C
# modifications: 40K branched PEG; engineered cysteine G41C
# B24: 1h-239-891(S9C) 40K branched PEG (other)
# VL: B1 VL with S9C
# modifications: 40K branched PEG; engineered cysteine S9C
# B25: 1h-239-8 40K linear PEG (other)
# VL: B1 VL with R27Q, P28S, W30Y, R55Q, H56S, A93T
# modifications: 40K linear PEG; site of attachment not stated
# B26: 1h-239-891(Q3C) 40K branched PEG (other)
# VL: B1 VL with Q3C
# modifications: 40K branched PEG; engineered cysteine Q3C
# B27: 1h-239-891(K42C) 40K branched PEG (other)
# VL: B1 VL with K42C
# modifications: 40K branched PEG; engineered cysteine K42C
# B28: 1h-239-850 (other)
# VL: B1 VL with R55Q, H56S, A93S, N94M
# B29: 1h-239-891(Q79C) 40K branched PEG (other)
# VL: B1 VL with Q79C
# modifications: 40K branched PEG; engineered cysteine Q79C
# B30: 1h-239-850 40K linear PEG (other)
# VL: B1 VL with R55Q, H56S, A93S, N94M
# modifications: 40K linear PEG; site of attachment not stated
# B31: 1h-239-891(S60C) 40K branched PEG (other)
# VL: B1 VL with S60C
# modifications: 40K branched PEG; engineered cysteine S60C
# B32: 1h-239-891(S60C) 30K linear PEG (other)
# VL: B1 VL with S60C
# modifications: 30K linear PEG; engineered cysteine S60C
# B33: 1h-80-1 (other)
# VL: DIQMTQSPSSLSASVGDRVTITCRASQRIGSNLAWYQQKPGRAPKLLIYWASLLQSGVPSRFSGSGSGTDFTLIISSLQPEDFATYYCQQTRSAPFAFGQGTKVEIKR
# B34: 1h-79-807 (other)
# VL: DIQMTQSPSSLSASVGDRVTITCRASQPIGHTLGWYQQKPGKAPKLLIYWASDLIRGVPSRFSGSGSGTDFTLTISSLQPEDFATYYCQQMLRTPFMFGQGTKVEIKR
# B35: 1h-79-808 (other)
# VL: B34 VL with T32A, K45R, D53T, I55Q, R56S
# B36: 1h-79-809 (other)
# VL: B34 VL with P28A, T32S, I48V, D53T, I55Q, R56S
# Target: T1, human CD28 (human, UniProt P10747 19-220)
# Experiment: cell-based or functional assay
"CD80 CHO (EC50 nM), T cell proliferation [nM]","CD86 CHO (EC50 nM), T cell proliferation [nM]",Binder
0.3,0.4,B1
1,0.5,B2

# Target: T2, recombinant human CD28/Fc Chimera (human, UniProt P10747 19-152)
# T2 construct: bought from R&D Systems; Fc part of the bought chimera not given
# Experiment: BIAcore, CM5 chip coated with 12500 RU of CD28-Fc
row,binding result,Binder
1,binds,B3
2,binds,B4
3,binds,B5
4,binds,B6
5,binds,B7
6,binds,B8
7,binds,B9
8,binds,B10
9,binds,B11

# Target: T1, human CD28
# Experiment: cell-based or functional assay
# Remark: another data set of the same source
"IFNγ (EC50 nM), DC-driven MLR [nM]","IL-2 (EC50 nM), DC-driven MLR [nM]","TNFα (EC50 nM), DC-driven MLR [nM]",Binder
4.6,2.4,3.6,B12
0.2,0.1,0.2,B1
0.3,0.3,0.3,B13
0.6,0.6,0.6,B2
0.3,0.1,0.2,B14

# Target: T1, human CD28
# Experiment: cell-based or functional assay
# Remark: another data set of the same source
DC-MLR Assay (EC50 nM) [nM],Luciferase assay (EC50 nM) [nM],Binder
3,3,B15
2,–,B16
390,100,B17
13,17,B18
383,117,B19
5,3,B20
29,4.5,B21
13,10,B22
0.5,0.2,B1
2,–,B23
1.3,–,B24
285,510,B25
1.5,–,B26
13,–,B27
1.2,–,B2
2,9,B28
4.9,–,B29
4,2,B30
1.2,–,B31
0.8,–,B32

# Target: T1, human CD28
# Experiment: cell-based or functional assay
# Remark: another data set of the same source
Luciferase assay (EC50) [nM],MLR assay (EC50) [nM],Binder
366,438,B33
3,3,B15
4,3,B12
17,13,B18
3,5,B20
10,–,B22
9,2,B28
31,53,B34
560,–,B35
592,–,B36
